Results published in the DeepSol protein solubility set.

Experiment: soluble on expression in E. coli; label from the status in PepcDB or PDB records

Question: Which “soluble on expression in E. coli” value does the source give for “MTEDNIAPITSVKRLVTDKCTYKDNELLTKYSYENAVVTKTASGRFDVTPTVQDYVFKLDFEKKPEKLGIMLIGLGGNNGSTLVASVLANKHNVEFQTKAKGVKQPNYFGSMTQCSTLKLGIDAEGNDVYAPFNSLLPMVSPKHFVVSGWDINNADLYEAMQRSQVLEYDLQQRLKAKMSLVKPLPSIYYPDFIAANQDERANQCINLDEKGNVTTRGKWTHLQRIRRDIQNFKEENALDKVIVLWTANTERYVEVSPGVNDTMENLLQSIKNDHEEIAPSTIFAAASILEGVPYINGSPQNTFVPGLVQLAEHEGTFIAGDDLKSGQTKLKSVLAQFLVDAGIKPVSIASYNHLGNNDGYNLSAPKQFRSKEISKSSVIDDIIASNDILYNDKLGKKVDHCIVIKYMKPVGDSKVAMDEYYSELMLGGHNRISIHNVCEDSLLATALIIDLLVMTEFCTRVSYKKVDPVKEDAGKFENFYPVLTFLSYWLKAPLTRPGFHPVNGLNKQRTALENFLRLLIGLPSQNELRFEERLL” here?
Answer: soluble

Question: For “MTEEVGQKLLESLSLFKLGDIGYARIECELLTTFLEEQLENNLDSLSIHELSTNLIRNRICCREFIESRPAKKWVFLIFRLARTLFRDKTRIATFHSVNLHSEFVQVFWRNLTYQTKSYRNCKFQTFQFIASRFLRSEHDWNVTVVNCLNVTQKLIDNGENARKFVDCNLEDAVLVLLATRQMTVLQHSLEILGRLSDWSTTCRENLLCISLLRILSCEEQAREQIRIYDGVPTLLGLLSIKNSRLQWHVAWTLAQLAEQHETSLEIAQLGGISLIFAAISNPKPPGKAVGDWVAMLTGLTALLAQLAQASSNQQLMSNANGVYILGKLLAIKKNVTTDETIDSWDLLQCSIFRVLRLMYTFERSRQLLKKVLPTEIFEKFVDVGNYNSVLTDYDQIAKMYDNLIEENIEIMKDWETVNERRQAVGEVGEYELLDQLGAGAFGCVYTVRKKAQSHSENPAKLLALKEIFMTNLNDRESDKSFGDMISEVKIIKQQLRHPNIVRYRRIFVENHRLYIVMDLIQGCSLRDLIITMKEKKGNFEEKKIWAMVVQMMLALRYLHKEKQIVHRDLKPNNIMMTTDERVVITDFGLAKQKGPEYLKSAAGTIIYSCPEIVQNLPYGEKADIWSFGCCIYEMCQLQPVFHSTNMLTLAMQIVEAKYDPLNEMWSDDLRFLITSCLAPDPSARPDILKVSGMCGVRLLEYLDDVARQQASTSDMTASQSSYNIKIDESPSSLNSSTSSYKRPGRSSKTSGSGKLPPINPAPRRNHSMSAGETPRPSSIVCLPRITDKYSVMFPSAPSAIPSRRRVQTCSTEHPARSSSSTELKVSKQSDGLTVSSNVLRQIQDPVLTILNQIHRILVVTDKETISTSMNHQRRLVEMFRKNLLGRENDAVQMKTHLRKLAAESPEEIQMNLGFSDFRPVLVQSHINGYQKDQKVTKITYEQLSACIECLIAENPAAK”, which “soluble on expression in E. coli” value is on record?
Answer: soluble

Question: For “MTEFDNLTWLHGKPQGSGLLKANPEDFVVVEDLGFTPDGEGEHILLRILKNGCNTRFVADALAKFLKIHAREVSFAGQKDKHAVTEQWLCARVPGKEMPDFSAFQLEGCKVLEYARHKRKLRLGALKGNAFTLVLREISDRRDVETRLQAIRDGGVPNYFGAQRFGIGGSNLQGALRWAQSNAPVRDRNKRSFWLSAARSALFNQIVHQRLKKPDFNQVVDGDALQLAGRGSWFVATSEELPELQRRVDEKELMITASLPGSGEWGTQRAALAFEQDAIAQETVLQSLLLREKVEASRRAMLLYPQQLSWNWWDDVTVELRFWLPAGSFATSVVRELINTMGDYAHIAELEHHHHHH”, which “soluble on expression in E. coli” value is on record?
Answer: soluble

Question: For “MTEIERKFLVATFPDGELHAVPLRQGYLTTPTDSIELRLRQQGTEYFMTLKSEGGLSRQEYEIQIDVTQFEMLWPATEGRRVEKTRYSGKLPDGQLFELDVFAGHLSPLMLVEVEFLSEDAAQAFIPPPWFGEEVTEDKRYKNKALALSIP”, which “soluble on expression in E. coli” value is on record?
Answer: soluble

Question: With “MTELERHLLNALEQLQQDYMQRLNEWESAFVELQKMFSLTQRDNAMLNEQVMQLSQQVQHLSERTERLSQLYSENRRLEHHHHHH” as the sequence, how does the “soluble on expression in E. coli” value read?
Answer: not soluble

Question: Which “soluble on expression in E. coli” value does the source give for “MTEMAKGSVTHQRLIALLSQEGADFRVVTHEAVGKCEAVSEIRGTALGQGAKALVCKVKGNGVNQHVLAILAADQQADLSQLASHIGGLRASLASPAEVDELTGCVFGAIPPFSFHPKLKLVADPLLFERFDEIAFNAGMLDKSVILKTADYLRIAQPELVNFRRTA” here?
Answer: soluble

Question: With “MTENTLDPAADLLERLGDKRFRTILADPPWQFQNRTGKMAPEHKRLNRYGTMSLEAIAGLPVERLTADTAHLYLWVPNALLLEGLKVMEAWGFTYKTNLVWHKIRKDGGPDGRGVGFYFRNVTELVLFGVRGKNARTLAAGRRQVNFLATRKREHSRKPDEMYGIIESCSPGPYLELFARGARDRWSVWGNEADENYYPRWNTYANHSQAEICPFEAAALEHHHHHH” as the sequence, how does the “soluble on expression in E. coli” value read?
Answer: soluble

Question: Which “soluble on expression in E. coli” value does the source give for “MTEQSVKNTPQHETQSKPKQKTVKLIIKRQDTSDSKPYEETFEIPYRENLNVIACLMEIRRNPVNIKGEKTTPVVWDMNCLEEVCGACSMVINGRARQSCSAIVDQLEQPIRLEPMNTFPVIRDLQVDRSRMFDNLKRMKAWIPIDGTYDLGPGPRMPEKKRQTAYELSKCMTCGVCLEVCPNVTENNKFVGAQAISQVRLFNLHPTGSMTKDERLNALMGTGGLQQCGNSQNCVNACPKGIPLTTSIAAMNRETTFHMFKSFFGSDHEVE” here?
Answer: not soluble

Question: Which “soluble on expression in E. coli” value does the source give for “MTESPTTHHGAAPPDSVATPVRPWSEFRLTPAEAAAAAALAARCAQRYDETDGPEFLLDAPVIAHELPKRLRTFMARARLDAWPHALVVRGNPVDDAALGSTPVHWRTARTPGSRPLSFLLMLYAGLLGDVFGWATQQDGRVVTDVLPIKGGEHTLVSSSSRQELGWHTEDAFSPYRADYVGLLSLRNPDGVATTLAGVPLDDLDERTLDVLFQERFLIRPDDSHLQVNNSTAQQGRVEFEGIAQAADRPEPVAILTGHRAAPHLRVDGDFSAPAEGDEEAAAALGTLRKLIDASLYELVLDQGDVAFIDNRRAVHGRRAFQPRYDGRDRWLKRINITRDLHRSRKAWAGDSRVLGQR” here?
Answer: soluble

Question: With “MTESTLAFVFPGQGSQSLGMLAELSELHPQIRETFAEASEGAGVDLWALSQGGPEEMLNRTEYTQPALLAAGVAVWRLWTAQRGQRPALLAGHSLGEYTALVAAGVLSLHDGAHLVRLRGQFMQAAAPAGVGAMAAVLGAEDAVVLEVCAEAAGSQVVVPANFNSPGQIVIGGDAAAVDRALALLAERGVRKAVKLAVSVPSHTPLMRDAANQLGEAMAGLSWHAPQIPVVQNVDARVHDGSAAIRQALVEQLYLPVQWTGCVQALASQGITRIAECGPGKVLSGLIKRIDKSLDARPLATPADYAGALDAWAH” as the sequence, how does the “soluble on expression in E. coli” value read?
Answer: soluble

Question: For “MTETIKVSESLELHAVAENHVKPLYQLICKNKTWLQQSLNWPQFVQSEEDTRKTVQGNVMLHQRGYAKMFMIFKEDELIGVISFNRIEPLNKTAEIGYWLDESHQGQGIISQALQALIHHYAQSGELRRFVIKCRVDNPQSNQVALRNGFILEGCLKQAEFLNDAYDDVNLYARIIDSQ”, which “soluble on expression in E. coli” value is on record?
Answer: soluble

Question: Which “soluble on expression in E. coli” value does the source give for “MTFLLKSCSTFFEKFCCCCKKYESEWNTQLESISLFAARRGFTDGEPYLILFGLCPNANKTFIVSENKLSDSNICLGDFLVACSDSPKNLKNFKKVPYPLDVTVEGDYAIISYSSMEAIKDISGILIFQTTDFGPIRSLNQNLDLDEYNITVHATGVSASGHVIELRAKAQPASNYRNSSVYENPSFLDDLSDEPLEIKKTISNNSLDGFSMEQLIQQLPTLELGEAENSVRVPQNLSAPRLMKAFVYSVHQYPHTKFHFLWICDIMEKSILKLPQYDFELGYFFEGIFKQKSNGKWECEQYNNKIEPLINGTVVINEYNGNEKVELTTTVTNYKPKNNTRKWPEVEAKYLGVVYDRHNKLPKNCEGQKVEVQMMKIDKEQYGWVITDILNE” here?
Answer: not soluble

Question: Which “soluble on expression in E. coli” value does the source give for “MTFRNCVAVDLGASSGRVMLARYERECRSLTLREIHRFNNGLHSQNGYVTWDVDSLESAIRLGLNKVCAAGIAIDSIGIDTWGVDFVLLDQQGQRVGLPVAYRDSRTNGLMAQAQQQLGKRDIYQRSGIQFLPFNTLYQLRALTEQQPELIPHIAHALLMPDYFSYRLTGKMNWEYTNATTTQLVNINSDDWDESLLAWSGANKAWFGRPTHPGNVIGHWICPQGNEIPVVAVASHDTASAVIASPLNGSRAAYLSSGTWSLMGFESQTPFTNDTALAANITNEGGAEGRYRVLKNIMGLWLLQRVLQERQINDLPALIAATQALPACRFIINPNDDRFINPDEMCSEIQAACREMAQPIPESDAELARCIFDSLALLYADVLHELAQLRGEDFSQLHIVGGGCQNTLLNQLCADACGIRVIAGPVEASTLGNIGIQLMTLDELNNVDDFRQVVSTTANLTTFTPNPDSEIAHYVALIHSTRQTKELCA” here?
Answer: soluble

Question: With “MTGFAPQAGLPSHSVQVADHFDGNSPRGSPMSSGGHPVDRNRGLQPQKEAFSGPAAGKPFHPQALSKYSRHYSPEDELSAEAQPIAAYKIVSQSNKQLLAGSVSVTSLSSRTTELATADPFALAPFPSKAGKQKP” as the sequence, how does the “soluble on expression in E. coli” value read?
Answer: soluble

Question: For “MTGTLAPEAMPLLSVRKLTKLFGNFAACNGIDLDIAPGEIHALLGENGAGKSTLVKMLFGVLSPTEGDIIWQGQPVSVGSPSEARRLGIGMVFQHFSLFEALTVAENIALSLDPKISLKEIAREAEQLSRAYGLPLDPNAHVADLSVGERQRIEIVRALLQNPRLIILDEPTSVLTPQEADKLFETLAKLKAEGRSVLYISHRLEEVQRICDRATVLRHGKVTGACDPRKETPASLARMMVGSDVASVSRATGEALGAPQIEVMGLSVAPRTPFAVALKSISMNVRAGEVLAIAGVAGNGQGELFDALSGEYPVYNNDAIHLRGKPVGRLGINGRRLMGAGFVPEERHGHAAVPGMSLSDNLLLARSRSDRKAFLTGGFLRIVRGSTIKAAARRISETMDVRKSGADPLAGSLSGGNLQKFIVGRELDRQPSVLVVNQPTWGVDAGAASRIRQALVDLAKAGSAVIVISQDLDEIFEVATNIAVISDGMLSEAHPVEEMTLEKIGLLMGGIHTSQSGAAQHAHLEHHHHHH”, which “soluble on expression in E. coli” value is on record?
Answer: not soluble

Question: With “MTGVRQDAWTKEEDELLANVVLQYIREGGTQLEAFAEVGRRLSRTAAACGFRWNSCVRKQYKEEIEQAKQERKMRKKETPSTKESEGQAKVETAVKSHLSWAEVLAFLQAEEQKARDARRTADENRALKNDMEQLQQMVTKLQMEKESLQKQLAAIQEEYKTLLSIMERARKMVTDSGKPAPNAVAEGVDEG” as the sequence, how does the “soluble on expression in E. coli” value read?
Answer: not soluble

Question: For “MTHRPAPDDMAELIYTSGTTGNPKGVILTHRNLVANILQVNRHIPVVTPDFSFLSLLPLSHMFEQMGGFFTPLYRGAAIVYIRTLKPSAIMEALGEEDIYAIIAVPRLLQLLKGSVERELEAKGLGSIFRWLLKVGERMSRGGRSVLFRPIQRKFGRNFALFVSGGAPLDPEVFRFWNGLGFRVVEGYGLTECSPVLTANTMERQVMGSVGLEHHHHHH”, which “soluble on expression in E. coli” value is on record?
Answer: soluble

Question: For “MTICSVNNVTKSFGGNIIFENISLEIKNGERVGLVGRNGSGKTTIFQLLTGMESLDAGAIHMKKGTRIGHVAQIPKFDESMTVYEVLSSAFKIEKELEREMRTLEKDMAEEQESSVLQKLMERYGIIQEKFAFLGGYEIEANIMKVANGLQVTELFPRSFLELSGGEQTKVSLAYMLLQKPDLLLLDEPTNHLDLFAVEWLEQFLKEYNGTVMVISHDRYFLDEVVTKIFDLEDGEIHVYHTNYSRFVEEKEERLLQEFQAYQEQQKKIKKMKEAIKRLREWANQANPPNEGLHKRARSMERALERMQKLKKPILERKQIGLQFEGQDRSGKDVVVIKEVSKGFADHPLFNEVNLHVRFQERAAIVGRNGTGKTTLLKLLLEEIEPDAGEIRIGSSVKIGYLSQHAYGNMKSDVLEAFREYVAVTEGEARHILAKFLFYGPAVFKKVTQLSGGEKMRLRLAQLMYQDINFLILDEPTNHLDIESREVLEEALEQYNGTILAVSHDRYFLNKLFEKTYWIDEHKLFEFAGNYAWARQKWEERLETQVIKQQRQGRKSIETAPVKKKEARNIEEIETELMHVEEDIYTLECTMEHVVDIKRLEQLYEEKTKKELLRAELYNELENIVE”, which “soluble on expression in E. coli” value is on record?
Answer: not soluble
